Results: patent publication US20240398896A1, “INFLAMMASOME INHIBITION” (National University of Singapore, priority 2021, published 2024)

Experiments:
[1] = biological target: T1, NLRP3 inflammasome (Homo sapiens, UniProt Q9ULZ3); experiment: ASC speck formation by flow cytometry in reconstituted HEK293T cells (human NLRP3-mCitrine, human ASC-mPlum) with ASC2 of various species; type: cell-based; parameters: expressed in transfected cells; host or cells: HEK293T; conditions: 50 ng ASC2-LSSmOrange, 48 h, FIG. 27A
Description: Plasmids. ASC2 sequences of 16 non-primate non-bat species were gene synthesized (IDT) and cloned into pQCXIH-LSSmOrange vector (Clontech). All constructs were prepared with endotoxin-free plasmid kits (Omega Bio-tek).
Transfection. HEK293T cells were seeded at 3×10^5/mL in 96-well plate overnight. […] 48 h post-transfection, cells were harvested for flow cytometry analysis.

[2] = biological target: NLRP1 inflammasome (Homo sapiens); experiment: Talabostat-induced inflammasome activation in N/TERT-1 keratinocytes stably expressing ASC2-mCitrine; conditions: N/TERT-1, talabostat 0, 20, 200 μM, 24 h; FIG. 25B
Description: (§4) Immortalized N/TERT-1 keratinocyte were cultured in KSFM media (Gibco) supplemented with 30 g/ml BPE, 0.1 ng/ml rEGF, and 0.3 mM calcium chloride.
(§5) GP2-293 cells stably expressing gag and pol proteins, were co-transfected with pVSV-G envelope vector and mCitrine-only empty vector, bat or human ASC2-mCitirine pQCXIH vector for 48 h. Supernatants containing retroviruses were collected, centrifuged at 500 g for 10 min. N/TERT-1 cells were transduced with low MOI of retrovirus for 24 h to obtain a single viral copy per transduced cell. 72 h post-transduction, cells were selected by 20 μg/mL Hygromycin B antibiotic for at least 1 week to ensure stable expression. The stable cells were FACS-sorted for equal fluorescent intensity to ensure the same expression levels across cell lines.
(§6) Inflammasome activation assay. N/TERT-1 cells in KSFM without antibiotics were seeded at 1.8×10^5/mL into 96-well plates overnight. Cells were treated with various concentrations (0, 20, 200 μM) of talabostat dissolved in DMSO for 24 h. DMSO concentration is controlled at 0.5% for all treated wells.

[3] = biological target: NLRP1 inflammasome (Homo sapiens, UniProt Q9ULZ3); experiment: as above
Description: as §4, §5, §6

[4] = test system: peritonitis induced by ASC specks; experiment: Peritonitis induced by ASC specks in bat ASC2/rtTA mice; type: in vivo, mouse; conditions: bat ASC2/rtTA vs WT mice, oral Dox 7 days, ASC-mPlum specks i.p., 4 h
[5] = test system: H1N1 IAV, strain A/NWS/33; type: in vivo, mouse
[6] = biological target: T2, AIM2 inflammasome (Mus musculus, UniProt Q9EPB4); experiment: Inflammasome activation in LPS-primed BMDMs of bat ASC2/rtTA mice transfected with poly(dA:dT); type: cell-based; conditions: Dox, LPS 3 h, poly(dA:dT) transfection 4 h, FIG. 5D, 5E
T2 construct: endogenous in cells; host or cells: BMDMs of wild-type and bat ASC2/rtTA mice
T2 sequence (Q9EPB4 1-193): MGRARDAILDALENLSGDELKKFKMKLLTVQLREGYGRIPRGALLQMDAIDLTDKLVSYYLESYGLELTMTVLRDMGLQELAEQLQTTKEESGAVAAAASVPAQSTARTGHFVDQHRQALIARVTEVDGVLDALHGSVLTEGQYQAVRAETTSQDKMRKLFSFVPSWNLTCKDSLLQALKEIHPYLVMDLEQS
Source text: (§1) Inflammasome activation assays.

[7] = biological target: T3, AIM2 inflammasome (Homo sapiens, UniProt Q9ULZ3); experiment: ASC speck formation in HEK293T cells reconstituted with human AIM2-mCitrine and human ASC-mPlum (ImageStream); type: cell-based; parameters: expressed in transfected cells; host or cells: HEK293T; conditions: FIG. 3D
Source text: as §1
(§2) ImageStream imaging flow cytometry. […] Nuclei were stained with DAPI.

[8] = test system: Zika virus (ZIKV); type: cell-based, mouse; conditions: bat ASC2/rtTA vs WT BMDMs, ZIKV MOI=1, 24 h, Dox; FIG. 10F
[9] = biological target: T3, AIM2 inflammasome; experiment: Inflammasome activation in LPS-primed THP-1 macrophages stably expressing ASC2, transfected with poly(dA:dT); type: cell-based; parameters: endogenous in cells; host or cells: THP-1 macrophages (PMA-differentiated, LPS-primed, poly(dA:dT)-transfected); conditions: LPS 3 h, poly(dA:dT) 4 h
Source text: (§3) Generation of THP-1 and IMACs stable cells. […] Single cell clones were generated for THP-1 cells stably expressing ASC2-LSSmOrange.
as §1

[10] = biological target: T1, NLRP3 inflammasome; experiment: Inflammasome activation in LPS-primed THP-1 macrophages stably expressing ASC2, stimulated with MSU crystals; type: cell-based; parameters: endogenous in cells; host or cells: THP-1 macrophages (PMA-differentiated, LPS-primed); conditions: LPS 3 h, MSU crystals 4 h
Source text: as §3, §1

[11] = biological target: T1, NLRP3 inflammasome; experiment: ASC speck and filament formation in HEK293T cells reconstituted with human NLRP3-mCitrine and human ASC-mPlum (ImageStream, confocal); type: cell-based; parameters: expressed in transfected cells; host or cells: HEK293T
Description: as §1, §2
Confocal imaging. […] At 48 h post-transfection, cells were fixed with 10% formalin for 15 min at room temperature. DAPI (1:2000 dilution) was used for nuclear staining. All samples were then mounted and examined using the Leica TCS SP8 confocal microscope.

[12] = biological target: T4, NLRP3 inflammasome (Mus musculus, UniProt Q9EPB4); experiment: Inflammasome activation in LPS-primed BMDMs of WT or bat ASC2/rtTA mice stimulated with nigericin; conditions: Dox-induced bat ASC2, LPS 3 h
T4 sequence (Q9EPB4 1-193): T2 sequence (Q9EPB4 1-193)

T3 sequence (Q9ULZ3 whole entry): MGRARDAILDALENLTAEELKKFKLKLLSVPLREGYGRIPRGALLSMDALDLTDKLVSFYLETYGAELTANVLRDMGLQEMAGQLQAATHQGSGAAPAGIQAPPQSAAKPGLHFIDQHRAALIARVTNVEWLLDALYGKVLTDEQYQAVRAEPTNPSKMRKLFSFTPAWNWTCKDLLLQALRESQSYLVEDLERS
T1 sequence (Q9ULZ3 whole entry): as above
NLRP1 inflammasome, sequence (Q9ULZ3 whole entry): as above
NLRP1 inflammasome (Homo sapiens), sequence (Q9ULZ3 whole entry): as above

B1: bat ASC2: ASC2 (PYRIN-only protein) of the bat Pteropus alecto, SEQ ID NO:11; expressed from vectors or as Dox-inducible transgene (protein)
chain: MGKKRDAILEALENLTADELKKFKLKLGAAPLRQGFRNIPRGALGPLDAVDLTDKLVAFYCEDYGAELTAVVLRDIGMQEEAERLQGVA
In the case of B1, the “Effect on inflammasome activation (ASC speck formation)” value [1] is reported as “inhibitory effect”, the “Cell death (LDH release)” value [2] is reported as “reduces cell death” and the IL-1β secretion ([3]; N/TERT-1, talabostat 0, 20, 200 μM, 24 h, FIG. 25C) is reported as “reduces IL-1β secretion”. The “Potency in inhibiting NLRP1 inflammasomes compared with human ASC2” value ([3]; human skin cells (N/TERT-1)) was “significantly more potent”, the “Recruitment of neutrophils (peritoneal lavage)” value ([4]; FIG. 8E) was “suppressed” and the “IL-1β release (peritoneal lavage)” value ([4]; FIG. 8F) was “suppressed”. The “Level of IL-1β in lung tissue extracts” value ([5]; 3 dpi, bat ASC2/rtTA vs WT mice, FIG. 10B) was “significantly reduced”, the Lung viral titres ([5]; 3 dpi, bat ASC2/rtTA vs WT mice, FIG. 10C) was “no significant different” and the Mortality ([5]; bat ASC2/rtTA mice, IAV 0.5×10^5 pfu intranasal one day after Dox, 14 days post-infection, 100% of WT mice succumbed) was 50%. For the same molecule, the “Activation of AIM2 inflammasome (LDH release, IL-1β)” value [6] was “suppressed the activation”, the “ASC speck formation (human AIM2 inflammasome activation)” value ([7]; HEK293T, human AIM2-mCitrine, human ASC-mPlum, ASC2-LSSmOrange) was “suppressed the activation” and the “Potency in inhibiting human AIM2 inflammasome compared with human ASC2” value ([7]; expression normalized by gating equal signal intensity) was “significantly more potent”. The “IL-1β secretion triggered by ZIKV” value [8] was “substantially inhibited”, the “Cell death (LDH release)” value ([9]; FIG. 3G) was “inhibited” and the IL-1β secretion ([9]; FIG. 3H) was “inhibited”. For the same molecule, the “Cell death (LDH release)” value ([10]; FIG. 4D) was “inhibited”, the IL-1β secretion ([10]; FIG. 4E) was “inhibited” and the “ASC2 filament formation / distribution” value ([11]; HEK293T, ImageStream and confocal) was “formed fine and long filaments”. For the same molecule, the “Co-localization with human ASC” value ([11]; HEK293T, imaging, FIG. 3A) was “co-localization between bat ASC2 and human ASC”, the “ASC speck formation (human NLRP3 inflammasome activation)” value ([11]; HEK293T, human NLRP3-mCitrine, human ASC-mPlum, 50 ng ASC2-LSSmOrange, 48 h post-transfection) was “suppressed the activation of human NLRP3” and the “Potency in inhibiting human NLRP3 inflammasome compared with human ASC2” value ([11]; expression normalized by gating equal signal intensity, FIG. 3C) was “significantly more potent”. For the same molecule, the ASC speck formation ([12]; nigericin 30 min, FIG. 6B, 6C) was “reduction of ASC speck formation”, the “Pyroptotic cell death (LDH release)” value ([12]; nigericin 1 h, FIG. 5B) was “reduction” and the IL-1β secretion ([12]; nigericin 1 h, FIG. 5C) was “reduction”.
